Measurements: patent US9012420B2, “Aptamer for chymase, and use thereof” (Ribomic Inc., priority 2009, dated 2015)

T1: recombinant chymase (expressed by yeast) (Homo sapiens, UniProt P23946)
T1 construct: purchased SIGMA; host or cells: yeast
T1 sequence (P23946 22-247): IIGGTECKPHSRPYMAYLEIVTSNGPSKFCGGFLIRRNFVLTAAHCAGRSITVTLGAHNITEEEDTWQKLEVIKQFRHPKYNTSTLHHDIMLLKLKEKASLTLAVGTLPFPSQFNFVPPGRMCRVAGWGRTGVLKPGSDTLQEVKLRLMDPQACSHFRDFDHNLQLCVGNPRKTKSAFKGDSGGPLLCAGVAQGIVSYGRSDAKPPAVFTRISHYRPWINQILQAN

T2: native chymase (purified from human skin mast cell) (Homo sapiens, UniProt P23946)
T2 construct: the native is chymase purified from human skin mast cell; purchased Calbiochem; host or cells: human skin mast cell
T2 sequence (P23946 22-247): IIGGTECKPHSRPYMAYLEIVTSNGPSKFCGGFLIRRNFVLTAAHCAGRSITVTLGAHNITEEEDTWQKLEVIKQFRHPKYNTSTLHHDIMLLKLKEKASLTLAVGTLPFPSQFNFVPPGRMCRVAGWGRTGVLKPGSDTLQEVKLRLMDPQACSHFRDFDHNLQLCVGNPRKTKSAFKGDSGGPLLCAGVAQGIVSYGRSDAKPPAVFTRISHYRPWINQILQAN

T3: chymase (recombinant, manufactured by SIGMA) (Homo sapiens, UniProt P23946)
T3 construct: purchased SIGMA; host or cells: yeast
T3 sequence (P23946 22-247): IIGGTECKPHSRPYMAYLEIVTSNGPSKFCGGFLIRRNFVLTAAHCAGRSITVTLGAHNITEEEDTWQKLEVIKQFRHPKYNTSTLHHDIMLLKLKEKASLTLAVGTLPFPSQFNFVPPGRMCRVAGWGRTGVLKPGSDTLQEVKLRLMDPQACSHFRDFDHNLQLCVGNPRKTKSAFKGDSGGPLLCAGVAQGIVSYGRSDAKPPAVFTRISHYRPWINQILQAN

T4: chymase (recombinant) (UniProt P23946 P23946:22-247)
T4 sequence: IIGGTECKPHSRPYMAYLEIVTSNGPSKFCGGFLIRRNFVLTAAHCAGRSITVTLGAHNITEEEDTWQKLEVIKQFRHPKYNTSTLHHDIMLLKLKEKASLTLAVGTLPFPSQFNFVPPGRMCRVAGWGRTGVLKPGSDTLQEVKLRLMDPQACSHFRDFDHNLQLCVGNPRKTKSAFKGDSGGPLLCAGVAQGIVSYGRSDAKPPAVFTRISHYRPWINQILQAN

T5: chymase (Homo sapiens, UniProt P23946)
T5 sequence (P23946 22-247): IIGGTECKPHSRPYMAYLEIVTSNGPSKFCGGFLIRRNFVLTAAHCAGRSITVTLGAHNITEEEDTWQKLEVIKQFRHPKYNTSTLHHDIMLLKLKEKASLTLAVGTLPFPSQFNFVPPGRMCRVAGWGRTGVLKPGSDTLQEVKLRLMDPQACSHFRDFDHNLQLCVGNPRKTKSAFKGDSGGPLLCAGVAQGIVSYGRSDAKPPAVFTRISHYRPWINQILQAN


Experiments:
[1] = biological target: T1, recombinant chymase (expressed by yeast); assay: Chymase inhibitory activity using angiotensin I as substrate, recombinant chymase; format: biochemical; conditions: final 50 μM, chymase 0.2-0.5 nM, 37° C. 90 min, one measurement
Experimental: (§1) A second method of evaluation employs a native substrate. A useful native substrate for chymase is angiotensin I. Here, His-Leu, a peptide fragment released upon degradation of angiotensin I, is fluorescently derivatized, and the fluorescence intensity therefrom is quantified.
(§2) In the assay, an enzyme reaction is carried out in 50 μL of solution C. First, 0.3-0.75 ng of chymase (recombinant, manufactured by SIGMA; or native, manufactured by Calbiochem) is diluted in solution C to obtain 5 μL chymase solution. Each nucleic acid is prepared in solution C to obtain 25 μL solutions. 5 μL of each chymase dilution and 25 μL of each nucleic acid solution are mixed, and then the mixture is incubated at 37° C. for 5 minutes. […] The angiotensin I solution is added to the mixture of chymase and nucleic acid, and the enzyme reaction is initiated. After the reaction was allowed to proceed at 37° C. for 90 minutes, 25 μL of ice-cooled 30% trichloroacetic acid solution is added to terminate the reaction. The entire mixture is centrifuged at 4° C., 14000 rpm for 10 minutes, and 30 μL of the resulting supernatant is used for the subsequent reaction for fluorescent derivatization.
(§3) After 30 μL of the supernatant is added to a 96-well plate (Black, manufactured by Costar), 15 μL of 2% o-phthalaldehyde (manufactured by SIGMA) solution in methanol and 170 μL of 0.3M NaOH solution are mixed in each well, and the plate is allowed to stand at room temperature for 10 minutes. Subsequently, 25 μL of 3M HCl solution is added to terminate the reaction. The plate is set to the microplate reader SpectraMax190 (manufactured by Molecular Devices Corporation), and the fluorescence intensity is determined at an excitation wavelength of 355 nm and a fluorescence wavelength of 460 nm.
(§4) For control, samples are treated and analyzed in the same manner in two cases: use of SEQ ID NO: 58 (negative control) and use of chymostatin, a known chymotrypsin-like serine protease inhibitor (positive control). In both cases, fluorescence intensity obtained at 0 minute reaction time serves as a blank determination. Taking the fluorescence intensity detected with the addition of an equal volume of solution C, in place of each nucleic acid, in the chymase enzyme reaction as 100%, the inhibitory rate for each test substance is calculated, and the inhibitor concentration required to cause a 50% inhibition of the enzyme activity (IC50) is determined.
(§5) For further assessment of the inhibitory activity of the nucleic acid of the present invention, the enzyme activity of chymase was measured using angiotensin I, which is a native substrate for chymase, according to the following method. Angiotensin I is converted by chymase to angiotensin II, during which a peptide fragment His-Leu is released. Since the peptide His-Leu is fluorescently derivatized by o-phthalaldehyde, its fluorescence intensity can be quantitatively measured.
(§6) The total volume of solution for an enzyme reaction in the assay was set to 50 μL, and the reaction was performed in solution C buffer. First, 0.3-0.75 ng of chymase (recombinant, (manufactured by SIGMA) or native (manufactured by Calbiochem)) was diluted with solution C to give 5 μL thereof. Here, the recombinant is chymase expressed by yeast, and the native is chymase purified from human skin mast cell. The nucleic acid was serially diluted with solution C at a concentration of 0.0027-2 μM to give 25 μL thereof. The chymase solution (5 μL) and the nucleic acid solution (25 μL) were mixed, and the mixture was incubated at 37° C. for 5 min. On the other hand, […] angiotensin I (manufactured by PEPTIDE INSTITUTE, INC.) was prepared in solution C to give […] thereof, which was incubated at 37° C. for 5 min. The angiotensin I solution was added to a mixture of chymase and nucleic acid to start an enzyme reaction. The final chymase concentration of the reaction solution was 0.2-0.5 nM, and the final substrate concentration was 50 μM. […]

[2] = biological target: T2, native chymase (purified from human skin mast cell); assay: Chymase inhibitory activity using angiotensin I as substrate, native chymase; format: biochemical; conditions: final 50 μM, chymase 0.2-0.5 nM, 37° C. 90 min, one measurement
Experimental: as §1, §2, §3, §4, §5, §6

[3] = biological target: T3, chymase (recombinant, manufactured by SIGMA); assay: Chymase inhibitory activity using synthetic substrate Suc-Ala-Ala-Pro-Phe-MCA; format: biochemical
In short: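 Human recombinant chymase (16.7 nM or 1.67 nM final) preincubated 5 min at 37° C., then added to nucleic acid (0.0027–2 μM serial dilutions) and 100 μM substrate in solution C. AMC fluorescence (ex 380/em 460 nm) followed 5 or 30 min at 37° C.; slope gives initial velocity, inhibition versus no-inhibitor control yields IC50.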

chymase (recombinant) = biological target: T4, chymase (recombinant); assay: inhibition; SPR ++; conditions: tags: SIGMA, expressed in yeast
Experimental: Here, Suc is a protecting succinyl group, and MCA is a 4-methylcoumaryl-7-amide group; upon cleavage of the C-terminal side of phenylalanine, AMC (7-amino-4-methyl-coumarine) is released. By detecting the fluorescence of this AMC, the enzyme activity of chymase can be determined. The assay was performed using a 96-well plate (F16 Black Maxisorp Fluoronunc, manufactured by Nunc), with a reaction mixture volume of 100 μL, in solution C as a buffer solution. First, each nucleic acid was serially diluted to 0.0027-2 μM concentrations in solution C to obtain 50 μL solutions. After 10 μL of the 1 mM substrate prepared in solution C was added thereto, the plate was set to the microplate reader SpectraMax190 (manufactured by Molecular Devices Corporation), and incubated at 37° C. for 5 minutes. Separately, 0.05 μg (or 0.005 μg) of chymase (recombinant, manufactured by SIGMA) was diluted in solution C to obtain a 40 μL chymase solution, and incubated at 37° C. for 5 minutes. The chymase solution was added to the mixture of the nucleic acid and substrate to initiate an enzyme reaction. The final chymase concentration in the reaction mixture was 16.7 nM (or 1.67 nM), the final substrate concentration being 100 μM. The plate containing the reaction mixture was set to the microplate reader SpectraMax190 (manufactured by Molecular Devices Corporation), and examined for time-dependent changes in the fluorescence intensity at 37° C. for 5 minutes (or 30 minutes) (excitation wavelength 380 nm, detection wavelength 460 nm). A linear approximation of the increase in the fluorescence of the AMC released from the substrate by chymase activity was generated, and its slope was taken as the initial velocity […]. For control, samples were treated and analyzed in the same manner in two cases: use of a 30N or 40N (a nucleotide of 30 or 40 consecutive bases represented by N; N is A, G, C or T) nucleic acid pool (negative control), and use of chymostatin, a known chymotrypsin-like serine protease inhibitor (positive control). Taking the initial reaction velocity without the nucleic acid and inhibitor (V_0) as a 100% enzyme activity, the inhibitory rate of each test substance was calculated using the following equation: […]
The inhibitory activity on chymase was measured in the same manner as in Example 3.

chymase = biological target: T5, chymase; assay: Surface plasmon resonance (Biacore T100), aptamer immobilized on SA chip, chymase injected as analyte; format: binding; design: key: ++: a sequence that binds to chymase significantly more strongly than the negative control 30N; conditions: Table 2; same manner as Example 1, running buffer solution C; compared with 30N
Experimental: Binding strength is measured using Biacore T100 (manufactured by GE Healthcare). In a method of measurement, the aptamer is first immobilized onto a sensor chip, the amount immobilized being about 1000 RU. 20 μL of a chymase solution for analyte, prepared at 0.2 μM, is injected, and the binding of chymase to the aptamer is detected. An RNA comprising a random nucleotide sequence of 30 or 40 nucleotides is used as a negative control.
The binding activities against chymase of the nucleic acids shown by SEQ ID NO: 4-20 and 22-34 were determined by the surface plasmon resonance method using Biacore T100 (manufactured by GE Healthcare). The sensor chip used was the SA chip, which had streptavidin immobilized thereon. Bound thereto was about 1500 RU of a 16-nucleotide Poly dT with biotin bound to the 5′ end thereof. […] 20 μL of chymase for analyte, prepared at 0.2 μM, was injected. Solution A was used as a running buffer.
The binding activities against chymase of the nucleic acids shown by SEQ ID NO: 38-48 were evaluated by the surface plasmon resonance method. In the evaluations for SEQ ID NO: 38-48, measurements were taken in the same manner as Example 1. Solution C was used as a running buffer.

[4] = Table 3, substrate 100 μM, solution C, 37° C., mean value for 2 to 3 measurements

| Molecule | IC50 (chymase (recombinant)) [nM] | IC50 [3, 4] [nM] | Binding activity as determined using Biacore (chymase) | other results |
| --- | --- | --- | --- | --- |
| 69 (AAAGGGUUAGAUAGAGUUAAAAACCC; listed as RNA, chemistry not given here) [compound 69] |  |  |  | IC50 [1]: 628 nM; IC50 [2]: > 1000 nM; IC50 ([3]; Table 7, same manner as Example 3, mean value of two measurements): 91 ± 19 nM |
| GGGUUAGAUAGAGUUAAAAACCC (ssRNA, 2'-F pyrimidines except U9 2'-OH) [56(15)] | 61 |  |  |  |
| GGGUUAGAUAGAGUUAAAAACCC (ssRNA, 2'-F pyrimidines except U15 2'-OH) [56(16)] | 58 |  |  |  |
| 42 (nucleic acid, aptamer; 2'-fluoro at CU, RNA at AG, backbone not given here) GGGAGCAGGAGAGAGGUCAGAUGCGUGAUCGUGCAAGGCGGAUAGAGUUAAGGCCUAUGCGUGCUAGUGUGA |  | 124 ± 26 | ++ |  |
| 43 (nucleic acid, aptamer; 2'-fluoro at CU, RNA at AG, backbone not given here) GGGAGCAGGAGAGAGGUCAGAUGAUGCCAAGAUAGAUUUAAAUGGCGUUUGGGCCUAUGCGUGCUAGUGUGA |  | 81 ± 50 | ++ |  |
| 44 (nucleic acid, aptamer; 2'-fluoro at CU, RNA at AG, backbone not given here) GGGAGCAGGAGAGAGGUCAGAUGUUAGACCAAAGCAUAGGAGAUAGAGUUAAACCUAUGCGUGCUAGUGUGA |  | 49 ± 13 | ++ |  |
